In the Human Domainome abundance scans (Beltran et al. 2025) one finds abundance fitness data, which are given here for 34 variants.

The labels stand for the following.
B1: Transcriptional regulator ERG, residues 117 to 197; numbered along this chain, P11308 (parent)
chain: NMTTNERRVIVPADPTLWSTDHVRQWLEWAVKEYGLPDVNILLFQNIDGKELCKMTKDDFQRLTPSYNADILLSHLHYLRE

± gives the uncertainty stated by the source.

This data set covers variants of B1. Briefly: abundance fitness (aPCA) (normalised: wild type 0, dead -1); higher = more abundant; growth selection in yeast, the domain comes from the species named. The settings on record: Homo sapiens.
Turning to NMTTNERRVIVPADPTLWSTDHVRQWLEWAVKEYGLPDVNILLFQNIDGKELCKMTKDDFQRLTPSYNADIALSHLHYLRE, the abundance fitness is -0.821 ± 0.11.

Take NMTTNERRVIVPADPTLWSTDHVRQWLEWAVKEYGLPDVNILLFQNIDGKELCKMTKDDFQRLTPSYNADINLSHLHYLRE: the abundance fitness is -1.02 ± 0.49. As to NMTTNERRVIVPADPTLWSTDHVRQWLEWAVKEYGLPDVNILLFQNIDGKELCKMTKDDFQRLTPSYNADIILSHLHYLRE, the abundance fitness is -0.199 ± 0.34.

For NMTTNERRVIVPADPTLWSTDHVRQWLEWAVKEYGLPDVNILLFQNIDGKELCKMTKDDFQRLTPSYNADIDLSHLHYLRE, the abundance fitness was -0.97 ± 0.33. The value for NMTTNERRVIVPADPTLWSTDHVRQWLEWAVKEYGLPDVNILLFQNIDGKELCKMTKDDFQRLTPSYNADIKLSHLHYLRE was -0.952 ± 0.27. Consider NMTTNERRVIVPADPTLWSTDHVRQWLEWAVKEYGLPDVNILLFQNIDGKELCKMTKDDFQRLTPSYNADIELSHLHYLRE, for which the abundance fitness is -0.719 ± 0.11. The value for NMTTNERRVIVPADPTLWSTDHVRQWLEWAVKEYGLPDVNILLFQNIDGKELCKMTKDDFQRLTPSYNADICLSHLHYLRE was -0.726 ± 0.13. NMTTNERRVIVPADPTLWSTDHVRQWLEWAVKEYGLPDVNILLFQNIDGKELCKMTKDDFQRLTPSYNADIHLSHLHYLRE: the abundance fitness was -0.909 ± 0.45. As for NMTTNERRVIVPADPTLWSTDHVRQWLEWAVKEYGLPDVNILLFQNIDGKELCKMTKDDFQRLTPSYNADIGLSHLHYLRE, the abundance fitness is -0.953 ± 0.086.

For NMTTNERRVIVPADPTLWSTDHVRQWLEWAVKEYGLPDVNILLFQNIDGKELCKMTKDDFQRLTPSYNADIPLSHLHYLRE, the abundance fitness was -0.649 ± 0.26.

Regarding NMTTNERRVIVPADPTLWSTDHVRQWLEWAVKEYGLPDVNILLFQNIDGKELCKMTKDDFQRLTPSYNADWLLSHLHYLRE, the abundance fitness is -0.282 ± 0.064.

As to NMTTNERRVIVPADPTLWSTDHVRQWLEWAVKEYGLPDVNILLFQNIDGKELCKMTKDDFQRLTPSYNADKLLSHLHYLRE, the abundance fitness came to 0.074 ± 0.064. Turning to NMTTNERRVIVPADPTLWSTDHVRQWLEWAVKEYGLPDVNILLFQNIDGKELCKMTKDDFQRLTPSYNADELLSHLHYLRE, the abundance fitness is -0.151 ± 0.053. The value for NMTTNERRVIVPADPTLWSTDHVRQWLEWAVKEYGLPDVNILLFQNIDGKELCKMTKDDFQRLTPSYNADHLLSHLHYLRE was 0.001 ± 0.091; that for NMTTNERRVIVPADPTLWSTDHVRQWLEWAVKEYGLPDVNILLFQNIDGKELCKMTKDDFQRLTPSYNADVLLSHLHYLRE was 0.059 ± 0.041. NMTTNERRVIVPADPTLWSTDHVRQWLEWAVKEYGLPDVNILLFQNIDGKELCKMTKDDFQRLTPSYNADNLLSHLHYLRE: the abundance fitness is -0.624 ± 0.23. The value for NMTTNERRVIVPADPTLWSTDHVRQWLEWAVKEYGLPDVNILLFQNIDGKELCKMTKDDFQRLTPSYNADGLLSHLHYLRE was -0.174 ± 0.037; that for NMTTNERRVIVPADPTLWSTDHVRQWLEWAVKEYGLPDVNILLFQNIDGKELCKMTKDDFQRLTPSYNADYLLSHLHYLRE was -0.266 ± 0.14. The same measure for NMTTNERRVIVPADPTLWSTDHVRQWLEWAVKEYGLPDVNILLFQNIDGKELCKMTKDDFQRLTPSYNADPLLSHLHYLRE: 0.06 ± 0.084; for NMTTNERRVIVPADPTLWSTDHVRQWLEWAVKEYGLPDVNILLFQNIDGKELCKMTKDDFQRLTPSYNADRLLSHLHYLRE: 0.113 ± 0.036; for NMTTNERRVIVPADPTLWSTDHVRQWLEWAVKEYGLPDVNILLFQNIDGKELCKMTKDDFQRLTPSYNADFLLSHLHYLRE: -0.272 ± 0.11. The same measure for NMTTNERRVIVPADPTLWSTDHVRQWLEWAVKEYGLPDVNILLFQNIDGKELCKMTKDDFQRLTPSYNADDLLSHLHYLRE: -0.359 ± 0.089; for NMTTNERRVIVPADPTLWSTDHVRQWLEWAVKEYGLPDVNILLFQNIDGKELCKMTKDDFQRLTPSYNADSLLSHLHYLRE: -0.148 ± 0.056. NMTTNERRVIVPADPTLWSTDHVRQWLEWAVKEYGLPDVNILLFQNIDGKELCKMTKDDFQRLTPSYNADQLLSHLHYLRE: the abundance fitness amounted to 0.03 ± 0.055. Regarding NMTTNERRVIVPADPTLWSTDHVRQWLEWAVKEYGLPDVNILLFQNIDGKELCKMTKDDFQRLTPSYNADTLLSHLHYLRE, the abundance fitness turned out to be 0.05 ± 0.074.

NMTTNERRVIVPADPTLWSTDHVRQWLEWAVKEYGLPDVNILLFQNIDGKELCKMTKDDFQRLTPSYNADALLSHLHYLRE: the abundance fitness is 0.036 ± 0.042.

Take NMTTNERRVIVPADPTLWSTDHVRQWLEWAVKEYGLPDVNILLFQNIDGKELCKMTKDDFQRLTPSYNADMLLSHLHYLRE: the abundance fitness came out at 0.065 ± 0.077.

Take NMTTNERRVIVPADPTLWSTDHVRQWLEWAVKEYGLPDVNILLFQNIDGKELCKMTKDDFQRLTPSYNAQILLSHLHYLRE: the abundance fitness is -0.042 ± 0.062. NMTTNERRVIVPADPTLWSTDHVRQWLEWAVKEYGLPDVNILLFQNIDGKELCKMTKDDFQRLTPSYNAWILLSHLHYLRE: the abundance fitness was -0.42 ± 0.076.

As for NMTTNERRVIVPADPTLWSTDHVRQWLEWAVKEYGLPDVNILLFQNIDGKELCKMTKDDFQRLTPSYNASILLSHLHYLRE, the abundance fitness was -0.1 ± 0.056. Take NMTTNERRVIVPADPTLWSTDHVRQWLEWAVKEYGLPDVNILLFQNIDGKELCKMTKDDFQRLTPSYNATILLSHLHYLRE: the abundance fitness was -0.157 ± 0.078.

Regarding NMTTNERRVIVPADPTLWSTDHVRQWLEWAVKEYGLPDVNILLFQNIDGKELCKMTKDDFQRLTPSYNAYILLSHLHYLRE, the abundance fitness is -0.293 ± 0.18.

Turning to NMTTNERRVIVPADPTLWSTDHVRQWLEWAVKEYGLPDVNILLFQNIDGKELCKMTKDDFQRLTPSYNARILLSHLHYLRE, the abundance fitness was -0.036 ± 0.038. As for NMTTNERRVIVPADPTLWSTDHVRQWLEWAVKEYGLPDVNILLFQNIDGKELCKMTKDDFQRLTPSYNAVILLSHLHYLRE, the abundance fitness is -0.176 ± 0.056.
